Reference: patent US7101542

Assays:
[1] = target: IL-4 receptor (IL-4R) on C1498 tumor cells (UniProt P16382); assay: cell-based or functional assay
[2] = target: DT390IL-4 fusion protein (murine) (UniProt P00588); assay: cell-based or functional assay
Chain of UniProt P00588 (P00588 33-390, tags or fused parts left off): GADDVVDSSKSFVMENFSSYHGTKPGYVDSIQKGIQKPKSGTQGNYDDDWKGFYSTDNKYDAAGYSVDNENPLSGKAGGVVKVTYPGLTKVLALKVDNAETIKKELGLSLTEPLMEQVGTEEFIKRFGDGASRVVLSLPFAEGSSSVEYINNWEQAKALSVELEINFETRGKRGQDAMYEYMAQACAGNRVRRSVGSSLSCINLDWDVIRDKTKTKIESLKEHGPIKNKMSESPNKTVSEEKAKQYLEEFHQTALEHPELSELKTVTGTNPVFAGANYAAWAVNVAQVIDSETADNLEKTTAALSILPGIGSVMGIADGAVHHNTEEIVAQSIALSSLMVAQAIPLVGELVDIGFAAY

Chain of UniProt P16382 (P16382 26-810 limits assumed): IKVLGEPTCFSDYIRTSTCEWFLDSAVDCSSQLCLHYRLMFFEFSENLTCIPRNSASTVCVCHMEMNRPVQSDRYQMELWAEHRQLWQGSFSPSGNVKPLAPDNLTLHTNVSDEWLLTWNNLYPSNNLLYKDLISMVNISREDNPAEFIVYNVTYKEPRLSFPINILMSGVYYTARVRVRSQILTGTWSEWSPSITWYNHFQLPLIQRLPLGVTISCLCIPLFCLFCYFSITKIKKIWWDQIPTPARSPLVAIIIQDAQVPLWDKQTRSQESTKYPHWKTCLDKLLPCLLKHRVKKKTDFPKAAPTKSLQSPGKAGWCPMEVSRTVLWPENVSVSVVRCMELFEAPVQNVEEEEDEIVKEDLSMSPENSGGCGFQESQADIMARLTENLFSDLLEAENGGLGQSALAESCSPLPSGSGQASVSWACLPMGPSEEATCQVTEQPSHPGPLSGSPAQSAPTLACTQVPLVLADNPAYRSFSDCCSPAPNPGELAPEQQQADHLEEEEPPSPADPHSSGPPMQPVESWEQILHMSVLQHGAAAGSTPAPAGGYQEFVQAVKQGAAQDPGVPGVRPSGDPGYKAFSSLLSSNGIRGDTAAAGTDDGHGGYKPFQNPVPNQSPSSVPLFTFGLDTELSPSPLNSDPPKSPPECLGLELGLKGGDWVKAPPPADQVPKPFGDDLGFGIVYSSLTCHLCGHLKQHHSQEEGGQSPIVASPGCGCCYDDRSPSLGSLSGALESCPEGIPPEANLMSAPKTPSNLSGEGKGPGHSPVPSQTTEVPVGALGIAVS

Substance | viability of C1498 cells [1] | viability of IL-4R+ C1498 leukemia cells (trypan blue, live cell count) [1] | blocking of C1498 killing by DT390IL-4 [2]
DT390IL-4 fusion protein (from UniProt P00588 33-390; P07750 21-140) | 10 nM | 1 nM | 
rat IgG1 anti-mouse IL-4 monoclonal antibody (Clone 11B11) |  |  | 20 µM
